This note sets out measurements from the nanobody polyreactivity screen of Harvey et al. (2022).

The nature of the data set: yeast display, Sf9 membrane polyspecificity reagent, FACS + sequencing; frameworks hold sequencing errors. The gist of the method:
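Genes from sorted yeast were amplified by colony PCR, read by MiSeq 2 × 250 sequencing and filtered on CDR length. These cells carried a synthetic nanobody library in Saccharomyces cerevisiae BJ5465 and were sorted by FACS into low and high (top ~1%) gates on anti-HA and streptavidin fluorescence. Polyreactivity is labelled according to the gate of origin.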
On to “QVQLVESGGCLVQAGGSLRLICAASGLIFTGNAMGWYRQAPGKERELVAAINYSGGSTYYADSVKWRFTISRDNAKNTVSLQLNSLKAEDTAVYYCAAGGKSRSYYWGQGTQVTVSS”, for which the “polyreactivity (PSR sort gate)” value was “high polyreactivity”.

Turning to “QVQLVESGGGLVQAGGSLLLSCAASGRTFNVYAMGRYRQAPGKERELVAAINRGGRTNYADSVKGRYTISRDNAKNTVYLQMNSLKPEDTAVYYCAALRVYVNWHKIGYDYWGQGTQVTVSS”, the “polyreactivity (PSR sort gate)” value is reported as “low polyreactivity”. The same measure for “QVQLVESGGGLVQAGGSLRLSCAASGFTFKLYAMGWYRQAPGKERELVAAISSSGGRTYYADSVKGRFTISRDNAKNTVYLQMNSLKPEDTAVYYCNAVRTVNDYHYDYWGQGTQVTVSS”: “high polyreactivity”; for “QVQLVETGGGLVQAGGSLRLSCAASGIIIPWYTMGWYRQAPGKERELVAAISSGGRTNYADSVKGRFTISRDNAKNTVYLQMNSLIPEDTAVYYCAANYYRDRDWGQGTQVTVSS”: “high polyreactivity”; for “QVQLVVSGGGLVQAGGSLRLSCAASGFIFVNYAMGWYRQAPGKDGELVAAISRGGGRTYYADSVKGRFTISRDNAKNTVYLQMNSLKPEDTAVYYCNARRLGYHQRYFWGQGTQVTVSS”: “high polyreactivity”.

For “QVQLVESGGGLVQAGGSLRLSCAASGFTFYTYVMGWYRQAPGKERELVAAISGRGGSTYYADSVKGRFTISRDNAKNTVYLQMNSLKPEDTAVYYCATVRSYSRVVGYDYWGQGTQVTVSS”, the “polyreactivity (PSR sort gate)” value is reported as “high polyreactivity”. For the sequence “QVQLVESGGGLVQAGGSLRISCAASGYNSYSNAMGWYRQAPGKERELVASILSGGSTNYADSVKGRFTISRDNAKNTVYLQMNSLKPEDTAVSYCATRVRTRTGYQYYYWGQGTQVTVSS”, the “polyreactivity (PSR sort gate)” value is recorded as “high polyreactivity”. The entry for “QVQLVESGGGLVQAGGSLRLSCAASGLTFPQYAMGWYIQAPGKERELVAAISKTGGSTYYADSVKGRFTISRDNAKNTVYLLMNSLKPEDTAVYYCAAGSSVTPYRYYYWGQGTQVTVSS” is “high polyreactivity”; for “QVQLVESGGGLVQAGGSLRLSCAASGYTFGHYVMGWYRQAPGKERELVAAISRSGGSTYYADSVKGRFTISRDNAKNTVYLQMNSLKPEDTAVYYCARGRIGGGAPGDKSSLNYYYWGQGTQVTVSS” it is “high polyreactivity”; for “QVQLVESGGGLVQAGGSLRLSCAASGRTFGKYAMGSYTQAPGKETELVAAISSSGGSTYYADSVKGRFTISRDNAKNTVYLQMNSVKPEDTAVYYCGARWSYRDDYWGQGTQVTVSS” it is “high polyreactivity”. As to “QVQLVESGGGLVQAGGSLRLSCAASGYSFRIYAMGWYRQAPGKERELVATITNGGSTHYADSEKGRFTISRDNAKNTVYLQMNSLKPEDTAVYYCAAYLPGWELRDYGYWGQGTQVTVSS”, the “polyreactivity (PSR sort gate)” value is recorded as “high polyreactivity”.

Consider “QVQLVESGGGLVQAGGSLRLSCAASGRIFVYNAKGWYRQAAGKERELVAAISYTGGTTYYADSVKGRFTISRDNAKKTVYLQMKSLKPEDTAVFFCAALWWWNRQVRYEYWGQGTQVTVSS”, for which the “polyreactivity (PSR sort gate)” value is “low polyreactivity”.

In the case of “QVQLVESGGGLVQAGGSLRLSCAASGLTFTAYAMGWYRQAPGKERELVAAISVRGGRTYYADSVKGRFTISRDNAKNTVYLQMNSLKPEDTAVYYCNAVRFISARYDYWGQGTQVTVSS”, the “polyreactivity (PSR sort gate)” value is “high polyreactivity”.

For “QVQLVESGGGIVQAGGSLRLSCAASGLTFWYYAMGGYRQAPGKVRELVARITRSGVGTYYADSVKGRFTISRDNAKNTVYLQMNSLKPEDTAVYYCAARYWVSGFRAGYYWGQGTQVTVSS”, the “polyreactivity (PSR sort gate)” value was “high polyreactivity”. The same measure for “QVQLVESGGGLVQAGGSLRLSCAASGIICWWNTMGWYRQAPGKERELVATITRGGSTYYADSVKGRFTISRDNAKNTVYLQMNSLKPEDTAVYYCNAVQYKYLAKSYDYWGQGTQVTVSS”: “low polyreactivity”; for “QVQLVESGGGLVQAGGSLRLSCAASGSILYVYAMGWYRQAPGKERELVATITGRVVSKNYADSVKGRLTLSRDNAKNSVYLQMNSLKPEDTAVYYCAARTRRRRGEYDYWGQGTQVTVSS”: “high polyreactivity”; for “QVQLVESGGGLVQAGGSLRLSCAASGRTFYGNVMGWYRQAPGKERELVATISYSAGSTYYADSVKGRFTISRDNAKNTVYFQMNSLKPEDTAVYYCAAAGYVYHWAPRGSRYYYWGQGTQVTVSS”: “low polyreactivity”.

In the case of “QVQLVESGGGLVQAGGSLRLSCAASGRTFIGNVMGWSRQAPGKERELVAAITRSGGSTYYADSVKGRFTISRDNAKNTVYLQMNSLKPEDTAVYYCNAVRRTGGHGDYWGQGTQVTVSS”, the “polyreactivity (PSR sort gate)” value is “high polyreactivity”. The same measure for “QVQLVESGGGLVQAGGSLRLSCAASGSTFSSNAMGWYRQAPGKERELVAAINRTGNTYYADSVKGRFTISRDNAKNTVYLQMNSLKPEDTAVYYCNTDLNLYRGGGYWGQGTQVTVSS”: “low polyreactivity”; for “QVQLVESGGGLVQAGGSLRLSCAASGFTFGRYAMGWYRQAPGKERELVASISRSGGSTNYADSVKGRFTISRDNAKNTVYLQMNSLKPEDTAVYYCAAVKGRRYDYWGQGTQVTVSS”: “high polyreactivity”; for “QVQLVESGGGLVQAGGSLRLSCAASGRIFKYYTMGWYRQATGKEREFVASITGSGGTTYYADSVKGRFTISRDNAKNTVYLQMNSLKPEDTAVYYCNAYSYPYWYRYYYWGQGTQVTVSS”: “high polyreactivity”. Turning to “QVQLVESGGGLVQAGGSLRLSCAASGSIFYYNTMGWYRQAPGKERELVAAIRSSSGRTYYADSVKGRFTISRDNAKNTVYLQMNSLKPEDTAVYYCATVHSYTIQRYDYWGQGTQVTVSS”, the “polyreactivity (PSR sort gate)” value is “high polyreactivity”.

As for “QVQLVESGGGLVQAGGSLRLSCAASGSTFLINVLGWYRQAPGKERELVARISWRAATTYYADSVKGRFTISRDNAKNTVYLPMYSLQPEDTAVYYCADDLYKRGFDYWGQGTQVTVSS”, the “polyreactivity (PSR sort gate)” value is given as “low polyreactivity”. The same measure for “QVQLVESGGGLVQAGGSLRLSCAASGSISFLYTMGWYRQAPGKERELVAAITGSTASTYYADSVKGRFTISRDNAKNTVYLQMNSLKPEDTAVYYCAAYWYAEGYWVSRDYWGQGTQVTVSS”: “low polyreactivity”. The entry for “QVQLVESGGGLVQAGGSLRLSCAASGFIFHLYAMGWYRQAPGKERELVAVISGGGSTYYADSVKGRFTISRDNAKNTVYLQMNSLKPEDTAVYYCNVGRYYRYATGGDYWGQGTQVTVSS” is “high polyreactivity”. The same measure for “QVQLVESGGGLVQAGGSLRLSCAASGLIFVGYVMGWYRQAPGKERELVAAITSSSGSTYYADSVKGRFTISRDNAKNTVYLQKNSLKPEDTAVYYCAAEWGYYWYYDSEYWGQGTQVTVSS”: “high polyreactivity”. As for “QVQLVESGGGFVQAGGSLRLSCAASGRTFNGYAMGWYTQAPGKERELVAGISWRGTSTYYSDSVKGRFTISRDNAKNTVYLQLNSLKPEDTAVYYCAASRYLLYDYWGQGTQVTVSS”, the “polyreactivity (PSR sort gate)” value was “high polyreactivity”. The same measure for “QVQLVESGGGLVQAGGSLRLSCADTGRIFTRYAMGWYRQAPGKERELVASIRSGGSTYYADSVKGRFTISRDNAKNTVYLQMNSLKPEDTAVYFCAKGTFDLHYRKRYNYWGQGTQVTVSS”: “low polyreactivity”. The same measure for “QVHLVESGGGLVQAGGSLRLSCAASALTDGRYAMGWYRQAPGKERELVADIRYRAGSTNYADSVKGRFTISRDNAKNTVYLQMNSLKPEDTAVYYCAKGHPNDFGYWGQGTQVTVSS”: “high polyreactivity”; for “QVNLVYSAGGLVQAGGILRLSCTASGCTFYYNAMGWYRQEPGKVREVVARISRSGGSTYEDSVKGRFTISRDNAKNTVYLPMNSLKPEDTAVYYCNADAYGTPEFTSYAVSYDLWGQGTQVTVSS”: “low polyreactivity”.
